Results on two substances are retold here after patent US5223421A, “Identification of methionine Nα-acetyltransferase” (The General Hospital Corporation, priority 1990, dated 1993).

The target of assay [1] is T1, AAA1 N^α -acetyltransferase (N^α -AT) (Saccharomyces cerevisiae, UniProt P07347+P12945).
T1 sequence (P12945 2-854 limits assumed): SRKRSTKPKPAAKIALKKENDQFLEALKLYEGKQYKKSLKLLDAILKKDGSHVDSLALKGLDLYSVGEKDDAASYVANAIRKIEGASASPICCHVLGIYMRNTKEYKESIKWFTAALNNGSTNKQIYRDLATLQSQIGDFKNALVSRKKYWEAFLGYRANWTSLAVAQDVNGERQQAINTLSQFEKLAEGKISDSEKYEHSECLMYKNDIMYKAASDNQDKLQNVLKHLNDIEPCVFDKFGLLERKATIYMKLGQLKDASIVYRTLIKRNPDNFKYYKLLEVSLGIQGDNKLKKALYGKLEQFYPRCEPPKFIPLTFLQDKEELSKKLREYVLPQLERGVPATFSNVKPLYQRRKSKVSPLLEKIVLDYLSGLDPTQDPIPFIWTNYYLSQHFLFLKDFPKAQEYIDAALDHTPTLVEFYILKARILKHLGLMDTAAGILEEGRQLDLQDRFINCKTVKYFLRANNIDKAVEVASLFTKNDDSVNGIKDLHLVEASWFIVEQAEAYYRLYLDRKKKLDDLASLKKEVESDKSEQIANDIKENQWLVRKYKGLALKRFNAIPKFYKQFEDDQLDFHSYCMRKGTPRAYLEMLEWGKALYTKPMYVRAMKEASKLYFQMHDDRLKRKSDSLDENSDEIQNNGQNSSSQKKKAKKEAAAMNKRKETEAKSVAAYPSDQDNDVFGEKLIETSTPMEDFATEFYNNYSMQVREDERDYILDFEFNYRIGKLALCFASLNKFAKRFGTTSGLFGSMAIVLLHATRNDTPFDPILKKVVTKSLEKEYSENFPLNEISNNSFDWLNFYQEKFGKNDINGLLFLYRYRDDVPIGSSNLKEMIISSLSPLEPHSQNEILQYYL
T1 sequence (P07347 1-238): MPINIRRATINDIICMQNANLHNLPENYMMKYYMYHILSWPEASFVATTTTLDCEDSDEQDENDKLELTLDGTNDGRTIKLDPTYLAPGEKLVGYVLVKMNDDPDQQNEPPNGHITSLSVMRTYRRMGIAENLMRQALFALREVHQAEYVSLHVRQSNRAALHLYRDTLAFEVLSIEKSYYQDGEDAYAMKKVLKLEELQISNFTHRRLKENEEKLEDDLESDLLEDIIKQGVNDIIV
The assay is described as follows: Relative activity of N^α -AT for N^α -acetylation of synthetic peptides. The class given is biochemical. How it is done:
(§1) N^α -acetylt[…] was determined as previously described [Lee et al., J. Biol. Chem. 263:14948-14955 (1988)]. Aliquots of the lysate or chromatographic fractions were added to 1.5 ml Eppendorf tubes containing a reaction mixture of 50 mM HEPES, pH 7.4, 150 mM KCl, 1 mM DTT, 25 μM [^3 H] acetyl coenzyme A (0.5 μCi) and 50 μM synthetic peptide with an adjusted final volume of 100 μl. The assay mixture was incubated at 30° C. for 30 min. The reaction was stopped by adding 17 μl of 0.5M acetic acid and chilled in an ice bath. The reaction samples were filtered through SP membrane discs (Cuno) (previously pre-swollen in 0.5M acetic acid), and then washed three times with 1 ml of 0.5M acetic acid on a Millipore 1225 sampling manifold. The partially dried membranes were placed in scintillation cocktail and counted with a Beckman LS 3801 scintillation counter. One unit of activity was defined as the amount of enzyme able to transfer 1 pmol of [^3 H] acetyl group from [^3 H] acetyl coenzyme A to synthetic peptide per min under standard enzyme assay conditions defined above.
(§2) In order to compare the relative specificity and activity of the methionine N^α -acetylt[…] (M-N^α -AT) of the present invention with the specificity and activity of the AAA1 N^α -acetyltransferase (N^α -AT) of Lee, F.-J. S., et al., J. Bacteriol. 171, (1989), U.S. Patent Application of John A. Smith, and Fang-Jen S. Lee, filed Oct. 25, 1989, entitled "ISOLATION OF STRAINS OF SAC[…] ALTERED N^α -ACETYLT[…]" (which references have been incorporated herein by reference) synthetic peptides were prepared. These peptides were assessed for their ability to serve as substrates for the two enzymes. In Table 6, the effect of the amino terminal amino acid on activity is investigated; in Table 7, the effect of the penultimate amino terminal amino acid on activity is investigated.

Assay [2] deals with methionine N^α -acetyltransferase (M-N^α -AT). The assay can be described thus: Relative activity of M-N^α -AT for N^α -acetylation of synthetic peptides. In kind it is biochemical, Saccharomyces cerevisiae. Also noted: tested at 50 µM. The conditions noted are these: Table 7, influence of the penultimate amino terminal residue. The procedure: as §1, §2
The mark [3] stands for this setting: Table 6, influence of the amino terminal residue.
[4] abbreviates: Table 7, influence of the penultimate amino terminal residue.

Turning to “SIPETQKGVIFYESHGKLEYKDIP (SIPETQKGVIFYESHGKLEYKDIP) [Alcohol dehydrogenase (1-24) (Yeast)]”, the “Activity (%) (mean activity ± S.D.) N^a -AT” value in assay [1] (setting [3]) and in assay [1] (setting [4]) was 102 ± 5% in each case. Further, in assay [2], the “Activity (%) (mean activity ± S.D.) M-N^a -AT” value was determined as 0%.
As for “SYSMEHFRWGKPVGKKRRPVKVYP”, the “Activity (%) (mean activity ± S.D.) N^a -AT” value in assay [1] (setting [3]) and in assay [1] (setting [4]) was 100 ± 5% throughout. For the same substance, in assay [2], the “Activity (%) (mean activity ± S.D.) M-N^a -AT” value turned out to be 0%.
